Results: publication PMC5679713 (Structure (London, England : 1993), 2017)
Blank lines part the entries; values can stand above or below the molecule they belong to. Where no end group is shown, it is not given here. Me3 = trimethyl-lysine

What was measured:
[1] = target: PHD finger of Drosophila PPS (PPS-PHD), wild type, as used in NMR and fluorescence (Drosophila); experiment: other fluorescence titration
[2] = target: PHD finger of Drosophila PPS (PPS-PHD), wild type, as used in NMR and fluorescence (Drosophila); experiment: other fluorescence titration; remark: listed apart in the source
[3] = target: PHD finger of Drosophila PPS (PPS-PHD), wild type, as used in NMR and fluorescence (Drosophila); experiment: other fluorescence titration; remark: listed apart in the source
[4] = target: PHD finger of Drosophila PPS (PPS-PHD), wild type, as used in NMR and fluorescence (Drosophila); experiment: NMR titration
PPS-PHD = PPS-PHD (Drosophila melanogaster, UniProt Q9VG78); experiment: 1H,15N HSQC NMR titration, PPS-PHD; format: binding; details: pH 6.9, H3 peptide residues 1-12, 298K
[5] = target: T1, PHD finger of yeast Bye1 (Bye1-PHD), aa 47-134 (S. cerevisiae, UniProt P36106 47-134); experiment: other fluorescence titration
T1 sequence (looked up): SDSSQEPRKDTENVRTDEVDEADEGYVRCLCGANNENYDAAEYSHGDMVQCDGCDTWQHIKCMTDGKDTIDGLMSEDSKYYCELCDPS

PPS-PHD, sequence (Q9VG78 1-2016): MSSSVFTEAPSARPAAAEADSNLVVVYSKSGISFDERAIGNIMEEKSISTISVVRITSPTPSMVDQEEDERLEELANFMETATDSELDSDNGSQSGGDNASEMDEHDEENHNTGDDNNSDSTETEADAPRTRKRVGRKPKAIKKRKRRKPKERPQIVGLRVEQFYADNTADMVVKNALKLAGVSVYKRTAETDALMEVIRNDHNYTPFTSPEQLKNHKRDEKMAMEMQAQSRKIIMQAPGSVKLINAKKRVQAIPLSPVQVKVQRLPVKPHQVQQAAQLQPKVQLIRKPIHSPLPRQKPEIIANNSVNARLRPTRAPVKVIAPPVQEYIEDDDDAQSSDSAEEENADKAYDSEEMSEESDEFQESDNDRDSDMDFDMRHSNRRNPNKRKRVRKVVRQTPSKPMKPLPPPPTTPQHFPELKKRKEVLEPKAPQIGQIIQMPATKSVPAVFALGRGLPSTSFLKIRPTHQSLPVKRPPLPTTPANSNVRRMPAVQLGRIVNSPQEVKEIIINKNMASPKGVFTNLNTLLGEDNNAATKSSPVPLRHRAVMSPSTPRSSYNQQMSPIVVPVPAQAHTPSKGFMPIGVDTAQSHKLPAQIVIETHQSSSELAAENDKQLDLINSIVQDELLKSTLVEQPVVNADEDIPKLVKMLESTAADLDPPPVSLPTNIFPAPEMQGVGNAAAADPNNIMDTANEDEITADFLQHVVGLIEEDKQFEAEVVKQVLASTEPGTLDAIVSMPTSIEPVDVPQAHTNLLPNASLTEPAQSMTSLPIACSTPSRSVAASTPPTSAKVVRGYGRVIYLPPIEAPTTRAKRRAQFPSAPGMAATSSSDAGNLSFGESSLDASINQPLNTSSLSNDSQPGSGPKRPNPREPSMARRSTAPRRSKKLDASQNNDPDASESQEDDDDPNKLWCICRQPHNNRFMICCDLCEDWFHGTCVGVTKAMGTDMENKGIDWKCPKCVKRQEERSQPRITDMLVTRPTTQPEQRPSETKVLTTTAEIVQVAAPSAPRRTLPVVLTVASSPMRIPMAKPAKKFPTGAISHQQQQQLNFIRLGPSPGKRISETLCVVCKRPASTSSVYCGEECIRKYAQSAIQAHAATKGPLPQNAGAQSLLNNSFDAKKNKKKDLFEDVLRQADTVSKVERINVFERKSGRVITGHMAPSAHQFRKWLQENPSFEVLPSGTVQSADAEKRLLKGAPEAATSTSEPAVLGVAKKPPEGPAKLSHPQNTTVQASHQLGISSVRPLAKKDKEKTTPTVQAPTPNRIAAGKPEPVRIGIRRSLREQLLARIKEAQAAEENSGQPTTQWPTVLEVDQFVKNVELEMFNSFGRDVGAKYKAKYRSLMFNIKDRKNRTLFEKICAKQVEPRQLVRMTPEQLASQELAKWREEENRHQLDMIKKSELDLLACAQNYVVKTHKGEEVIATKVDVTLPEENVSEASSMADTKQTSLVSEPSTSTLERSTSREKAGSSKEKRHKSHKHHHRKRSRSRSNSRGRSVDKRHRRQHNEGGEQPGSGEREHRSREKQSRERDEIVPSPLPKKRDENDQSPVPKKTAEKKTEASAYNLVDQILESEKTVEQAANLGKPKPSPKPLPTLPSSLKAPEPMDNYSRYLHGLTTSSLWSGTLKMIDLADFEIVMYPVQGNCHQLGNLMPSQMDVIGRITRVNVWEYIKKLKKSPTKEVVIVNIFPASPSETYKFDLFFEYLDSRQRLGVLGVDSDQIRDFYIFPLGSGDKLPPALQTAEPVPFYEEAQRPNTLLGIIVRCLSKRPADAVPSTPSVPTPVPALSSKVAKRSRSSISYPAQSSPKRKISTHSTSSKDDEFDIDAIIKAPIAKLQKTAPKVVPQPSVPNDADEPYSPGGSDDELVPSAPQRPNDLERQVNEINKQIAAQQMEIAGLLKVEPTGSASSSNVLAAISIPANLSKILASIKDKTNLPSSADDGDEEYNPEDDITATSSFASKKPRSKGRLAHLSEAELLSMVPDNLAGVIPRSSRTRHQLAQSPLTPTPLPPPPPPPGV

- Kd [1]: 17 µM
- Kd [2]: 1.9 µM
- Kd [3]: 3.6 µM
Molecule: histone H3K4me3 peptide (residues 1-12 of H3) (from UniProt P68431 2-13)

- Kd [4]: 230 µM
Molecule: histone H3K4me1 peptide (residues 1-12 of H3) (from UniProt P68431 2-13)

- Binding by NMR chemical shift perturbations (CSPs), in words (PPS-PHD): no CSPs in PPS-PHD were seen
Molecule: H3K4me0: H3K4me0 peptide (1–12 aa), unmethylated histone H3 tail, Synpeptide
- Recognition of unmethylated histone H3 tail, in words (PPS-PHD; NMR): does not recognize unmethylated histone H3 tail at all

- binding result [5]: binds
B1: histone H3K4me3 peptide (residues 1-12 of H3) (peptide, UniProt P68431 2-13, looked up)
peptide: ARTK(Me3)QTARKSTG
